One block for each substance: values may come before it.
Experiments:
[1] = biological target: SIRPα protein with hFc tag (SIRPα-hFc) (UniProt P78324); test: ELISA on coated SIRPα-hFc 1 µg/mL; control 0.2 µg/ml
[2] = biological target: SIRPα protein with hFc tag (SIRPα-hFc) (UniProt P78324); test: ELISA on coated SIRPα-hFc 1 µg/mL; control 1 µg/ml
[3] = biological target: SIRPα protein with hFc tag (SIRPα-hFc) (UniProt P78324); test: ELISA on coated SIRPα-hFc 1 µg/mL; control 0.008 µg/ml
[4] = biological target: SIRPα protein with hFc tag (SIRPα-hFc) (UniProt P78324); test: ELISA on coated SIRPα-hFc 1 µg/mL; control 0.0001 µg/ml
[5] = biological target: SIRPα protein with hFc tag (SIRPα-hFc) (UniProt P78324); test: ELISA on coated SIRPα-hFc 1 µg/mL; control 0.04 µg/ml
[6] = biological target: SIRPα protein with hFc tag (SIRPα-hFc) (UniProt P78324); test: ELISA on coated SIRPα-hFc 1 µg/mL; control 0.0003 µg/ml
[7] = biological target: SIRPα protein with hFc tag (SIRPα-hFc) (UniProt P78324); test: ELISA on coated SIRPα-hFc 1 µg/mL; control 0.0016 µg/ml
[8] = biological target: SIRPα protein with hFc tag (SIRPα-hFc) (UniProt P78324); test: ELISA on coated SIRPα-hFc 1 µg/mL; control 0.00001 µg/ml
[9] = biological target: human CD47, full length, on transfected cells (human) (UniProt Q08722); test: FACS, HEK293 clone 293F-hCD47 1B8
[10] = biological target: human CD47, full length, on transfected cells (human) (UniProt Q08722); test: FACS, HEK293 clone 293F-hCD47 1B6
[11] = biological target: human CD47, full length, on transfected cells (human) (UniProt Q08722); test: FACS, HEK293 clone 293F-hCD47 1D10
[12] = biological target: human CD47, full length, on transfected cells (human) (UniProt Q08722); test: FACS, HEK293 clone 293F-hCD47 2E2
[13] = biological target: human CD47, full length, on transfected cells (human) (UniProt Q08722); test: FACS, HEK293 clone 293F-hCD47 1C4
[14] = biological target: human CD47, full length, on transfected cells (human) (UniProt Q08722); test: FACS, HEK293 clone 293F-hCD47 1B5
[15] = biological target: human CD47, full length, on transfected cells (human) (UniProt Q08722); test: FACS, HEK293 clone 293F-hCD47 1F8
[16] = biological target: human CD47, full length, on transfected cells (human) (UniProt Q08722); test: FACS, HEK293 clone 293F-hCD47 1A8
[17] = biological target: human CD47, full length, on transfected cells (human) (UniProt Q08722); test: FACS, HEK293 clone 293F-hCD47 1C2
[18] = biological target: human CD47, full length, on transfected cells (human) (UniProt Q08722); test: FACS, HEK293 clone 293F-hCD47 1F11
[19] = biological target: human CD47, full length, on transfected cells (human) (UniProt Q08722); test: FACS, HEK293 clone 293F-hCD47 1B4
[20] = biological target: human CD47, full length, on transfected cells (human) (UniProt Q08722); test: FACS, HEK293 clone 293F-hCD47 1F10
[21] = biological target: human CD47, full length, on transfected cells (human) (UniProt Q08722); test: FACS, HEK293 clone 293F-hCD47 1C8
[22] = biological target: human CD47, full length, on transfected cells (human) (UniProt Q08722); test: FACS, HEK293 clone 293F-hCD47 1E8
[23] = biological target: human CD47, full length, on transfected cells (human) (UniProt Q08722); test: FACS, HEK293 clone 293F-hCD47 1F6
[24] = biological target: human CD47, full length, on transfected cells (human) (UniProt Q08722); test: FACS, HEK293 clone 293F-hCD47 1B11

SIRPα protein with hFc tag (SIRPα-hFc), sequence (P78324 31-370): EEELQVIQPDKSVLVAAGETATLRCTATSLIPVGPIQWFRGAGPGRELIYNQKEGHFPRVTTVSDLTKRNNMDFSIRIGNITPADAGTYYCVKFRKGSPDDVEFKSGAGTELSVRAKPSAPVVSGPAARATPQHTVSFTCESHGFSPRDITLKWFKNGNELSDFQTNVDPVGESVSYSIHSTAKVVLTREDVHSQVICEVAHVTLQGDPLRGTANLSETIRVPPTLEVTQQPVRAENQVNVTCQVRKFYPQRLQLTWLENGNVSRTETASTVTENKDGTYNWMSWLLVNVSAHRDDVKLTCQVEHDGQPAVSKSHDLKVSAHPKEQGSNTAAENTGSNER

OD450 nm [1]: 0.11
OD450 nm [2]: 0.19
OD450 nm [3]: 0.06
OD450 nm [4]: 0.07
OD450 nm [5]: 0.1
OD450 nm [6]: 0.07
OD450 nm [7]: 0.08
OD450 nm [8]: 0.06
Substance: Control protein (non-CD47 fusion protein)

Mean fluorescence intensity [9]: 3.11
Positive cells (%) [9]: 3.08%
Mean fluorescence intensity [10]: 3.22
Positive cells (%) [10]: 5.7%
Mean fluorescence intensity [11]: 3.19
Positive cells (%) [11]: 2.38%
Mean fluorescence intensity [12]: 2.79
Positive cells (%) [12]: 2.42%
Mean fluorescence intensity [13]: 3.84
Positive cells (%) [13]: 2.55%
Mean fluorescence intensity [14]: 2.72
Positive cells (%) [14]: 0.85%
Mean fluorescence intensity [15]: 2.66
Positive cells (%) [15]: 3.13%
Mean fluorescence intensity [16]: 3.2
Positive cells (%) [16]: 2.19%
Mean fluorescence intensity [17]: 2.47
Positive cells (%) [17]: 1.85%
Mean fluorescence intensity [18]: 3.73
Positive cells (%) [18]: 3.78%
Mean fluorescence intensity [19]: 2.56
Positive cells (%) [19]: 1.6%
Mean fluorescence intensity [20]: 3.64
Positive cells (%) [20]: 3.85%
Mean fluorescence intensity [21]: 2.15
Positive cells (%) [21]: 0.81%
Mean fluorescence intensity [22]: 2.79
Positive cells (%) [22]: 1.29%
Mean fluorescence intensity [23]: 2.94
Positive cells (%) [23]: 2.35%
Mean fluorescence intensity [24]: 2.87
Positive cells (%) [24]: 4.7%
Substance: IgG subtype control (antibody)

— patent publication US20220017615A1
